Measurements taken from patent US20150266957A1.

How the values were obtained:
Experiment in all cases: cell-based or functional assay
[1] = biological target: cynomolgus monkey PROKR1 (cynomolgus monkey (Macaca fascicularis)) (UniProt G7PMD0)
human PROKR1 (human) = human PROKR1 (human) (UniProt Q8TCW9)
[2] = biological target: mouse PROKR1 (mouse (Mus musculus)) (UniProt Q9JKL1)
[3] = biological target: rat PROKR1 (rat (Rattus norvegicus)) (UniProt Q8R416)
rat PROKR1 (rat (Rattus norvegicus)), sequence (Q8R416 whole entry): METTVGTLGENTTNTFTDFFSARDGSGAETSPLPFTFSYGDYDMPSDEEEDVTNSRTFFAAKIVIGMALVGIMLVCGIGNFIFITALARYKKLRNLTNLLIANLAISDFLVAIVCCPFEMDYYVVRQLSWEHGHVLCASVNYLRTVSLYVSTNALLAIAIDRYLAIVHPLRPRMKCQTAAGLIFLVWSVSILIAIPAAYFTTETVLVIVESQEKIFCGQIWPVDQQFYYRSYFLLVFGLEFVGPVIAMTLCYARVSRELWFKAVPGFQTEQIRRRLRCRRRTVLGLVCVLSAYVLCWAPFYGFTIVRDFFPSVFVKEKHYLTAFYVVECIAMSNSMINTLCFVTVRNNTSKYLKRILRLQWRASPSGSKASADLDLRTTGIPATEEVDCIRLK

human PROKR1 (human), sequence (Q8TCW9 whole entry): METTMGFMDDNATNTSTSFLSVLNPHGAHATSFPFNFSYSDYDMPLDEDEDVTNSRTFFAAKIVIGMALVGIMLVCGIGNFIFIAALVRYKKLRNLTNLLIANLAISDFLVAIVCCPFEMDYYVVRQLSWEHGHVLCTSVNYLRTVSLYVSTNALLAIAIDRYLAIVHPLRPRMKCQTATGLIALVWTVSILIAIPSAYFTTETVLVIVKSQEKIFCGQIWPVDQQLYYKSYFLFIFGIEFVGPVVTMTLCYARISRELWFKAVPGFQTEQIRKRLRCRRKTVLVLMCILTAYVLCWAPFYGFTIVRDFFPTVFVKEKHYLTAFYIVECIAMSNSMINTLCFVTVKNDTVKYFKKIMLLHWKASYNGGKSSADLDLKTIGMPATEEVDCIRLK
mouse PROKR1 (mouse (Mus musculus)), sequence (Q9JKL1 whole entry): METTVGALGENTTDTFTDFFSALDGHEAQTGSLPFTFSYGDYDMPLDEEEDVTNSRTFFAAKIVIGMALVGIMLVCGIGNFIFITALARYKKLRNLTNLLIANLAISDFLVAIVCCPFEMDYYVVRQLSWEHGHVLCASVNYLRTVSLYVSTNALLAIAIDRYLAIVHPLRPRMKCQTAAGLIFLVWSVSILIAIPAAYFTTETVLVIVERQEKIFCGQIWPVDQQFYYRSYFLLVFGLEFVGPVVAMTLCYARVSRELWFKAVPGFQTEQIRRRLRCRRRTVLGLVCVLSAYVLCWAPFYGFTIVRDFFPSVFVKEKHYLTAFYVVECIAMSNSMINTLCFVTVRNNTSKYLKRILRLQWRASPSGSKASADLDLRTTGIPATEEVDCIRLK
cynomolgus monkey PROKR1 (cynomolgus monkey (Macaca fascicularis)), sequence (G7PMD0 entry or part of it): as the sequence (Q8TCW9 whole entry) above, with V22A, T31A, S40G, I82V, V135I, K210R, V246F, D348N, V350A counted along it

EC50 (nM), calcium mobilization, 293/mfPROKR1, Experiment 3 [1] [nM]	EC50 (nM), calcium mobilization, 293/hPROKR1, Experiment 1 (human PROKR1 (human)) [nM]	EC50 (nM), calcium mobilization, 293/hPROKR1, Experiment 3 (human PROKR1 (human)) [nM]	Ligand EC50 (nM), calcium flux, CHO/mPROKR1 (induced) [2] [nM]	Ligand EC50 (nM), calcium flux, CHO/mPROKR1 (non-induced) [2] [nM]	EC50 (nM), calcium mobilization, 293/mfPROKR1, Experiment 1 [1] [nM]	EC50 (nM), calcium mobilization, 293/hPROKR1, Experiment 2 (human PROKR1 (human)) [nM]	EC50, calcium flux, 293/mPROKR1, no antibody [2] [nM]	EC50, calcium flux, 293/rPROKR1, no antibody [3] [nM]	Binder
0.1	30.7	0.6	9.6	0.8					human prokineticin 2 (ligand, UniProt Q9HC23-2 28-108, looked up) AVITGACDKDSQCGGGMCCAVSIWVKSIRICTPMGKLGDSCHPLTRKVPFFGRRMHHTCPCLPGLACLRTSFNRFICLAQK
5	6.2	2.2	1.5	8.3	69	14.3	0.9	0.7	human prokineticin 1 (ligand, UniProt P58294 20-105, looked up) AVITGACERDVQCGAGTCCAISLWLRGLRMCTPLGREGEECHPGSHKVPFFRKRKHHTCPCLPNLLCSRFPDGRYRCSMDLKNINF
